Source: the supplement of paper PMC10126150
± gives the standard deviation of the averaged measurements.

Test system: ATP
Experiment: switch fluorescence ratio, 500 uM ATP over buffer (Cy3 cluster intensity, sum of 5 cycles each) (fold (ratio)); higher = stronger signal-on switching upon ATP binding; sequences stand for … in TCGTCGGCAGCGTCAGATGTGTATAAGAGACAGTTTTTTTTTTTTTTTTTTTTTTTTT…TC
Conditions: aptamer strand: ATP DNA aptamer (quencher-CACCTGGGGGAGTATTGCGGAGGAAGG + anchor), 100 nM annealed; ATP concentration: 500 uM
Outline: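 The quencher-labelled ATP aptamer, at 100 nM, was annealed to Cy3-labelled switching-strand clusters on a modified Illumina MiSeq flow-cell. The clusters were imaged in selection buffer, then after 15 min with 500 uM ATP at 22 °C, and this buffer/ATP cycle ran five times with NaOH stripping and re-annealing between runs. Per-cluster fluorescence ratios, summed target-cycle over summed buffer-cycle Cy3 intensity, were averaged per switch-domain sequence. Clusters outside 100-1000 RFU were excluded.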
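Also: ATP exposure 15 min at 22 °C before imaging.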

Row | Sequence | switch fluorescence ratio
1 | TTAGGTAGTG | 0.9667 ± 0.0047
2 | TATGTCTCCG | 1.03 ± 0.017
3 | TTTAAGAGAA | 1.001 ± 0.0059
4 | ATTATTTTAT | 1.05 ± 0.069
5 | CAGGCTAAGA | 1.026 ± 0.0047
6 | TGTGGAAAGA | 0.992 ± 0.054
7 | AGGGGAGGTA | 0.965 ± 0.021
8 | TCTAGGACGG | 1 ± 0.017
9 | TTTTCTATTG | 1 ± 0.044
10 | TATATGGTTG | 0.9383 ± 0.0022
11 | GGGTGGGGAA | 0.963 ± 0.075
12 | TGATTTTAGG | 0.9832 ± 0.0061
13 | AGTCTTAATA | 0.986 ± 0.034
14 | TTTTGGGCGT | 1 ± 0.062
15 | TGCGCGAAAG | 0.98 ± 0.042
16 | TGGTTCGTCT | 0.955 ± 0.058
17 | AGCCAGCTGC | 0.9924 ± 0.0095
18 | CGTGGGGTGT | 1.01 ± 0.039
19 | GGATAAAGAC | 1.37 ± 0.41
20 | TTTTTGATGG | 1.02 ± 0.037
21 | TGGGTTTGTT | 0.986 ± 0.03
22 | TTGATGGGTT | 1.02 ± 0.011
23 | CAAATGGGG | 0.9589 ± 0.006
24 | GAGATTTATT | 0.985 ± 0.057
25 | AAAAAAGGGA | 0.995 ± 0.022

Row | Sequence | switch fluorescence ratio
26 | TTGTCGTATC | 1 ± 0.019
27 | TTCCGATGGA | 1.33 ± 0.26
28 | TTAAATTCGC | 0.999 ± 0.0094
29 | ACTGAGGCTA | 1.07 ± 0.011
30 | GGGCTGGATT | 1.01 ± 0.036
31 | CCTGCTCATC | 1.99 ± 0.22
32 | TTTGGAGAGA | 1.001 ± 0.01
33 | GGCGGCAAAA | 1.07 ± 0.042
34 | TGTGGGAAAA | 1.02 ± 0.048
35 | TTCGACTAGC | 1.03 ± 0.03
36 | AAAGGGGTTT | 1.02 ± 0.022
37 | CGGGGGATT | 1.03 ± 0.02
38 | CGGGAATTGG | 0.961 ± 0.067
39 | TATCCCTGTT | 0.976 ± 0.013
40 | TTGTATTATG | 1.008 ± 0.0095
41 | GATTCAGGAG | 1 ± 0.032
42 | TGTTGGGCTC | 0.989 ± 0.047
43 | CCTGGGTCTG | 1.001 ± 0.006
44 | GCTTCCCAGC | 1.19 ± 0.032
45 | ATGGGATTGG | 0.962 ± 0.02
46 | CAGTTTGTTG | 0.973 ± 0.037
47 | TTTCGTCGGC | 1.048 ± 0.0018
48 | TATCCTTTCA | 1.04 ± 0.026
49 | AAGTTGTCAA | 1.011 ± 0.0052
50 | CTGGTCGCT | 0.976 ± 0.017

Row | Sequence | switch fluorescence ratio
51 | ACGTTTATGT | 1.02 ± 0.02
52 | ATCGTAGATT | 0.993 ± 0.016
53 | GCAGAAAAAT | 1.04 ± 0.023
54 | GCTCTATCAC | 1.04 ± 0.035
55 | CCTAACAGTT | 1.02 ± 0.0039
56 | GAAAATTATA | 1.02 ± 0.035
57 | GTGGGGGGCC | 0.966 ± 0.028
58 | GCGTTGTGGC | 1.01 ± 0.05
59 | GTTGGTGGGA | 0.973 ± 0.025
60 | TTATGTTCAG | 1.04 ± 0.034
61 | GGTTAAGGGG | 1.05 ± 0.13
62 | GGCTATTAAA | 1.01 ± 0.011
63 | TGGTGCAGCT | 1.005 ± 0.0059
64 | AAGTGCTACC | 1.02 ± 0.06
65 | AAGTCTTTCG | 1.01 ± 0.012
66 | CCAATGAGTC | 0.971 ± 0.013
67 | AACAGCACGA | 1.28 ± 0.1
68 | ACTAATAAGT | 0.999 ± 0.028
69 | TTTTAGAGCC | 1.04 ± 0.043
70 | TGGGAGGGAA | 0.995 ± 0.013
71 | GTGTATAGGA | 0.98611 ± 0.00034
72 | TTCGCTGGTA | 1.15 ± 0.22
73 | TTCGCTACGG | 1.05 ± 0.029
74 | GTAAGATGAA | 1.01 ± 0.018
75 | AATTGAACGG | 0.9995 ± 0.0042

Row | Sequence | switch fluorescence ratio
76 | AGAAAGGGGG | 0.9954 ± 0.0038
77 | GAAGTCTGTG | 1 ± 0.047
78 | AGGTTTTGGT | 1 ± 0.055
79 | GTTATAATTG | 0.984 ± 0.035
80 | GCGCTGGTTT | 0.99 ± 0.034
81 | ATTTTATTTG | 1.06 ± 0.056
82 | TTTGACGGAA | 1.27 ± 0.28
83 | GGGAATCTGC | 1.01 ± 0.026
84 | TTAAAGGGGC | 1.03 ± 0.06
85 | AACGATTTTG | 1.03 ± 0.016
86 | AAGATTAGTG | 0.9828 ± 0.0067
87 | AGTATTCGGG | 0.976 ± 0.058
88 | TCTCTGGATG | 1.02 ± 0.013
89 | TTCGTGGCCC | 0.9572 ± 0.003
90 | CTGTGCAAGT | 1.47 ± 0.073
91 | CGGGGGTTAG | 0.999 ± 0.033
92 | TGCTTCTCCA | 1.03 ± 0.036
93 | AGAGACAGGG | 1.05 ± 0.032
94 | GTTCGCAAAT | 1.09 ± 0.063
95 | TCGGTGGTAA | 0.9823 ± 0.0065
96 | TTTGACTTGA | 0.984 ± 0.048
97 | TTCCTGAGTT | 1.16 ± 0.21
98 | TAGAATTGGT | 0.983 ± 0.016
99 | AATCGCGGTA | 1.05 ± 0.033
100 | GGGATAGGGG | 0.996 ± 0.024

Row | Sequence | switch fluorescence ratio
101 | ATAAAAACCG | 1.01 ± 0.053
102 | CTTAGCGGGG | 0.9827 ± 0.0064
103 | TGTTTCATTT | 0.989 ± 0.016
104 | ATACTCGTTA | 1.01 ± 0.024
105 | GTTTACGCAC | 1.75 ± 0.03
106 | TCATTTTGTT | 1 ± 0.028
107 | GGCCAAGGGG | 1.04 ± 0.027
108 | GAGGAGGTTG | 1.027 ± 0.003
109 | GCCTGTAGGA | 1.01 ± 0.015
110 | CGTCTAAGGG | 1.06 ± 0.13
111 | AGGTTGAACG | 0.985 ± 0.046
112 | GGCGTTGGGG | 1 ± 0.023
113 | TTTTTATGGC | 0.978 ± 0.028
114 | TTCTAAAAAG | 0.995 ± 0.035
115 | CATAGGATGG | 0.947 ± 0.025
116 | GTGGGGATTA | 1 ± 0.018
117 | CGGTTCGCGT | 0.972 ± 0.031
118 | CGAAGAGGTC | 1.02 ± 0.032
119 | TGGGGCGTCG | 1 ± 0.037
120 | AGGGGGAGTG | 0.987 ± 0.036
121 | TGAGGGTTCT | 0.979 ± 0.02
122 | TTTCAGTTTC | 1.02 ± 0.043
123 | GTAGGACTGC | 1.01 ± 0.021
124 | TTGCTTAGTT | 1.002 ± 0.0071
125 | AATATATACG | 1.0252 ± 0.00079

Row | Sequence | switch fluorescence ratio
126 | TCTGGGAATA | 1.04 ± 0.023
127 | GGGGGGATTC | 1.01 ± 0.019
128 | CGTTAGGGAG | 0.95456 ± 0.00035
129 | ACGGGTATTA | 0.9907 ± 0.0014
130 | ATAGTGGGGT | 0.987 ± 0.021
131 | TGTGTTGGTG | 1.02 ± 0.033
132 | AGTGACCTAG | 1.017 ± 0.0039
133 | GACATTTGGA | 1.017 ± 0.0066
134 | TAGTTGATGT | 1.026 ± 0.008
135 | GTTAACGACG | 1.017 ± 0.0068
136 | CGGGGGCGTT | 1 ± 0.018
137 | TCGTAGGATG | 0.975 ± 0.037
138 | TTTACTTGGG | 0.9767 ± 0.0077
139 | CAAATAGGCC | 1.002 ± 0.0014
140 | AGCTGAGTCT | 1.02 ± 0.034
141 | AAACAGGGAG | 0.974 ± 0.075
142 | CCAGTCATGA | 1.014 ± 0.0027
143 | GGCTTTGGGT | 0.991 ± 0.014
144 | GCTCTGAGTG | 1.013 ± 0.0075
145 | ACGTAGGTTC | 1.063 ± 0.0048
146 | GATGTCTCGA | 0.982 ± 0.079
147 | TTTGTTTTA | 1.01 ± 0.019
148 | TTTATCTATT | 1 ± 0.012
149 | GGCTTTGGTC | 1.018 ± 0.0099
150 | TACAGGGACC | 1.022 ± 0.0034

Row | Sequence | switch fluorescence ratio
151 | GCGTTTGGGT | 0.9955 ± 0.0041
152 | GAGTGAAAGT | 0.99 ± 0.023
153 | GTAAGAGGGG | 1.02 ± 0.03
154 | AGAGGGGATG | 1.02 ± 0.0081
155 | CAAGGCCTGT | 0.971 ± 0.017
156 | TTAAAATGTA | 0.992 ± 0.03
157 | ACTTCAGCGG | 1.07 ± 0.015
158 | GTTGTTTACC | 1.02 ± 0.021
159 | TTTAAGCCCC | 0.9854 ± 0.0082
160 | ATGAACAGGG | 1.01 ± 0.05
161 | GGGGGGTAGG | 1.01 ± 0.029
162 | CGATTTGCTT | 0.969 ± 0.058
163 | AACGGCGGGG | 1 ± 0.017
164 | AGTGGGGGTA | 0.995 ± 0.028
165 | TTTTAACTCG | 1.01 ± 0.023
166 | GATGGTTGTC | 1 ± 0.055
167 | AGTGTAAAAA | 1.04 ± 0.078
168 | TTTTGGCT | 1.02 ± 0.025
169 | GTTGCATCGA | 1.02 ± 0.046
170 | ATGTTCATGG | 0.99 ± 0.043
171 | CGCTTTAATT | 0.989 ± 0.032
172 | GGGACAGGGA | 1.05 ± 0.066
173 | AAGCGACTCG | 1.006 ± 0.0056
174 | GGGGGAATTG | 1.02 ± 0.075
175 | TGATATGTAA | 1.021 ± 0.0094

Row | Sequence | switch fluorescence ratio
176 | TAGGGCATGT | 0.9798 ± 0.0026
177 | TTTTTTGATC | 0.999 ± 0.034
178 | TAGATAGAAC | 0.976 ± 0.054
179 | TTCCTATGTG | 1.01 ± 0.036
180 | CAGAGATGGG | 0.9997 ± 0.0049
181 | GCGCCCAGTT | 1.003 ± 0.0029
182 | AAGGATATGG | 1.02 ± 0.016
183 | TTGGTGTACT | 1.01 ± 0.019
184 | TTCGGGCCGA | 0.998 ± 0.017
185 | AGAACCTAGT | 0.996 ± 0.031
186 | ATCATCGGGG | 0.988 ± 0.043
187 | GGGGAAGGAG | 0.977 ± 0.029
188 | AGTATAGTAG | 0.983 ± 0.019
189 | AATATAGGT | 1.02 ± 0.033
190 | GGGCCCGAAT | 0.992 ± 0.047
191 | TTGTTAGTGG | 1.01 ± 0.031
192 | TTTTATAGCG | 0.99918 ± 0.00023
193 | TAGAGGGGCA | 0.979 ± 0.011
194 | ATTCTGGGGT | 1.04 ± 0.07
195 | GCGGGAGGGA | 1.03 ± 0.015
196 | AATTTTAACA | 1 ± 0.016
197 | TGTTGGCCAG | 0.9797 ± 0.0075
198 | GGAAAAAGGT | 1.05 ± 0.14
199 | GAGCCCAGGG | 1.96 ± 0.82
200 | GAAATCGTTC | 1.02 ± 0.019
